Legend:
[1] = system: PPC peptide, soluble recombinant 18-mer ADGACGYGRFSPPCGAAG
[2] = biological target: recombinant soluble human uPAR (suPAR) (UniProt Q03405)
Sequence of recombinant soluble human uPAR (suPAR) (Q03405 whole entry, looked up, tested part not stated): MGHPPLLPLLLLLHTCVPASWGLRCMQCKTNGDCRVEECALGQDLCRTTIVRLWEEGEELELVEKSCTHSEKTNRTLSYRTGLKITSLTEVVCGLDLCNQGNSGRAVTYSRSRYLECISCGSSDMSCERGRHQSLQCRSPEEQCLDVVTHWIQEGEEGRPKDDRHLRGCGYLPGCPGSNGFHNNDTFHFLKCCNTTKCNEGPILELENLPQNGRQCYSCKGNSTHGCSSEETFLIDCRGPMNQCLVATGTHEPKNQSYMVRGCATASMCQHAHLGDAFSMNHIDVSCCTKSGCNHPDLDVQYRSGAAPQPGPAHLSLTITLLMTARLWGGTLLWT

Sequence of trypsin-activated MMP-9 (chain, as listed by the source): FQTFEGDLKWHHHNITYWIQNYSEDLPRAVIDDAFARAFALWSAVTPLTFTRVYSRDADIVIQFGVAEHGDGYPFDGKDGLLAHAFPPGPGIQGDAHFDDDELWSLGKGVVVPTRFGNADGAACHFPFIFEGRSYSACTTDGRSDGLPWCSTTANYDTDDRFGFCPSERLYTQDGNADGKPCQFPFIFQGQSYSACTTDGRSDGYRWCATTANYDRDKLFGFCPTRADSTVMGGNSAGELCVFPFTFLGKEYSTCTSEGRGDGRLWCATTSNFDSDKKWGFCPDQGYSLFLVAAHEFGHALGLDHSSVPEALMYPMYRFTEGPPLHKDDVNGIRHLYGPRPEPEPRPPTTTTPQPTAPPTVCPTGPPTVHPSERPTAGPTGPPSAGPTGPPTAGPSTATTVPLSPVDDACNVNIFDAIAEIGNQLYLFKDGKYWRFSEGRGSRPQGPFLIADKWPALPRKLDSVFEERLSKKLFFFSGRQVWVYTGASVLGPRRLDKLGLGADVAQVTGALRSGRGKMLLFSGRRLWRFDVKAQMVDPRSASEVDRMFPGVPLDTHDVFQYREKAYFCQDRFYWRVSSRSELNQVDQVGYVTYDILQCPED

Substance: trypsin-activated MMP-9
- gelatin degradation assay (enzymatic activity, biotinylated gelatin substrate) [1]: PPC inhibited both MMP-9 and MMP-2 activity
- cleavage of soluble uPAR in vitro (western blot) [2]: MMP-9 cleaved the domain 1 (D1) from uPAR similarly as chymotrypsin does
